Measured values reported in patent US20240174740A1 (EYEPOINT PHARMACEUTICALS, published 2024).

B1: HC2-AFL:LC1 (bispecific antibody, human IgG4 S228P, kappa)
heavy: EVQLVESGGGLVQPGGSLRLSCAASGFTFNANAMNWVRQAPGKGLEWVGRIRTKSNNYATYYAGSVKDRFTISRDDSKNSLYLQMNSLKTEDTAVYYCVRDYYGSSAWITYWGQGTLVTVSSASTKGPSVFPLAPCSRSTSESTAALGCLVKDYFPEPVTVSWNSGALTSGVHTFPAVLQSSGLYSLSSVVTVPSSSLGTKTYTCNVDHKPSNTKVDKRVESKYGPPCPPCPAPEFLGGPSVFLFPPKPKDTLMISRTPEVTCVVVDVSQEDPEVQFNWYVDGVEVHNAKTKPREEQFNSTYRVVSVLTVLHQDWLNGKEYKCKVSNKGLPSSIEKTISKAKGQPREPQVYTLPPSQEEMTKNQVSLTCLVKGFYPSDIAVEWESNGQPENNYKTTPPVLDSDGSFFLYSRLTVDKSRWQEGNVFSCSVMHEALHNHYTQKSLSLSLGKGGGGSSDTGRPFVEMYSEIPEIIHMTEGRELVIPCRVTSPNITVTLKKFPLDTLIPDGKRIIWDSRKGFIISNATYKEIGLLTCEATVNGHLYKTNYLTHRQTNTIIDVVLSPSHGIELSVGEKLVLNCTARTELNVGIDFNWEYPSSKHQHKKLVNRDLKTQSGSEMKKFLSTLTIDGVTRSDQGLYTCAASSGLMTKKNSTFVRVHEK
light: DVVMTQSPSFLSASVGDRVTITCKASQHVGTAVAWYQQRPGKAPKLLIYWASTRHTGVPSRFSGSGSGTEFTLTISSLQPEDFATYFCQQYSSYPFTFGGGTKLEIKRTVAAPSVFIFPPSDEQLKSGTASVVCLLNNFYPREAKVQWKVDNALQSGNSQESVTEQDSKDSTYSLSSTLTLSKADYEKHKVYACEVTHQGLSSPVTKSFNRGEC
B2: HC2-BRO:LC1 (bispecific antibody, human IgG4 S228P, kappa)
heavy: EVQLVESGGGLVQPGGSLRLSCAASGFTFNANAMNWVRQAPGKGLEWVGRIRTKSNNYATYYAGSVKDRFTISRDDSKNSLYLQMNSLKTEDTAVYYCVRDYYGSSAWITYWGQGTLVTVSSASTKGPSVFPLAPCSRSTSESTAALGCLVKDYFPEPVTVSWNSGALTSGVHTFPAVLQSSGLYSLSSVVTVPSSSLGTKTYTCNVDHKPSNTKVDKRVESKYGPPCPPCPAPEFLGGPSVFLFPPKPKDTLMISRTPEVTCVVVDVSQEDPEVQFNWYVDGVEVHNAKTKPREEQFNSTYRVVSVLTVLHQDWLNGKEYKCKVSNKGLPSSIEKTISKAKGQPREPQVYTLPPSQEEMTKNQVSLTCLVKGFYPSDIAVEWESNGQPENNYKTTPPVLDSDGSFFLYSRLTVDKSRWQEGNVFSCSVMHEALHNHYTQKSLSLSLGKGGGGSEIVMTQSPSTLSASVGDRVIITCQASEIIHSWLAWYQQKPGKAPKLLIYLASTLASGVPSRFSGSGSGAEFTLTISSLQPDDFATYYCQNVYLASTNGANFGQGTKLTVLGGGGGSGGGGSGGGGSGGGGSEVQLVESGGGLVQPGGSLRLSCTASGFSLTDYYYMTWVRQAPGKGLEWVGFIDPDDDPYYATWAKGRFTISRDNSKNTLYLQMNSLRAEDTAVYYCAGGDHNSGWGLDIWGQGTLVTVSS
light: B1 light
B3: HC2-ABI:LC1 (bispecific antibody, human IgG4 S228P, kappa)
heavy: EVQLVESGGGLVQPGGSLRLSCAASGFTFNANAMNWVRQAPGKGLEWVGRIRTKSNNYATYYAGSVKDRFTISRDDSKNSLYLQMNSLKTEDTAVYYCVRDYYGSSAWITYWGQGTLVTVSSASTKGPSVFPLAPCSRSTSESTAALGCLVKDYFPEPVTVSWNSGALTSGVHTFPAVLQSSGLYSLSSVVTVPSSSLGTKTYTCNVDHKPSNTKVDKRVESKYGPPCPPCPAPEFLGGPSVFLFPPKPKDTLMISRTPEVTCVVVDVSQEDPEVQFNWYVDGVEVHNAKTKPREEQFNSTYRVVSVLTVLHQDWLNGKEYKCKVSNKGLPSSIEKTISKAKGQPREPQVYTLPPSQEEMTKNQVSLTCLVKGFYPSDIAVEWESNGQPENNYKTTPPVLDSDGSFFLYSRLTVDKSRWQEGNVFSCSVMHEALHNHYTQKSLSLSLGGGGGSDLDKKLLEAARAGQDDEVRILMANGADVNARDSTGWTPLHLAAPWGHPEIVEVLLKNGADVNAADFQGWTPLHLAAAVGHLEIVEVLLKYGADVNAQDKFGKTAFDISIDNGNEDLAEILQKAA
light: B1 light
B4: HC2-RAN:LC1 (bispecific antibody, human IgG4 S228P, kappa)
heavy: not shown
light: B1 light
notes: also called HC2-RBZ:LC1; tetravalent bispecific antibody with ranibizumab-derived scFv on the heavy chain C-termini
B5: HC2:LC1-ABI (bispecific antibody, human IgG4 S228P, kappa)
heavy: not shown
light: DVVMTQSPSFLSASVGDRVTITCKASQHVGTAVAWYQQRPGKAPKLLIYWASTRHTGVPSRFSGSGSGTEFTLTISSLQPEDFATYFCQQYSSYPFTFGGGTKLEIKRTVAAPSVFIFPPSDEQLKSGTASVVCLLNNFYPREAKVQWKVDNALQSGNSQESVTEQDSKDSTYSLSSTLTLSKADYEKHKVYACEVTHQGLSSPVTKSFNRGECGGGGSDLDKKLLEAARAGQDDEVRILMANGADVNARDSTGWTPLHLAAPWGHPEIVEVLLKNGADVNAADFQGWTPLHLAAAVGHLEIVEVLLKYGADVNAQDKFGKTAFDISIDNGNEDLAEILQKAA
notes: The expressed entry minus its signal peptide is used here
B6: HC2-ABI:LC1-ABI (bispecific antibody, human IgG4 S228P, kappa)
heavy: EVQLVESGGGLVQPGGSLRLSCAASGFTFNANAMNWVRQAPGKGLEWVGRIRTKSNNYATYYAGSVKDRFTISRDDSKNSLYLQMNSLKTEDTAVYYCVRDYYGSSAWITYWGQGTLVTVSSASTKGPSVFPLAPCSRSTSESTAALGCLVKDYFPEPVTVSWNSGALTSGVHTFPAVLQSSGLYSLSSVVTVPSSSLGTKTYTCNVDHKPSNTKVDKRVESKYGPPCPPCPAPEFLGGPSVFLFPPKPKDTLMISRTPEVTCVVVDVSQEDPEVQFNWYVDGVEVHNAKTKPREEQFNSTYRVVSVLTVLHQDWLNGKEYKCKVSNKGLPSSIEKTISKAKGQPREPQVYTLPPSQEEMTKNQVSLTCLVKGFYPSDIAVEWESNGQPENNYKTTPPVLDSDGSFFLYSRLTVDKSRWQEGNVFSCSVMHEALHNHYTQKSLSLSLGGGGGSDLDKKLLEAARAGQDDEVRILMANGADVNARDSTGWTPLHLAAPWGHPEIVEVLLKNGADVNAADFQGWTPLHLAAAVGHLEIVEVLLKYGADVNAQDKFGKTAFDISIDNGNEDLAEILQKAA
light: B5 light
B7: HC2:LC1 (antibody, human IgG4 S228P, kappa, V domains shown)
VH: EVQLVESGGGLVQPGGSLRLSCAASGFTFNANAMNWVRQAPGKGLEWVGRIRTKSNNYATYYAGSVKDRFTISRDDSKNSLYLQMNSLKTEDTAVYYCVRDYYGSSAWITYWGQGTLVTVSS
VL: DVVMTQSPSFLSASVGDRVTITCKASQHVGTAVAWYQQRPGKAPKLLIYWASTRHTGVPSRFSGSGSGTEFTLTISSLQPEDFATYFCQQYSSYPFTFGGGTKLEIKR
notes: Human IgG4 (S228P) heavy chain HC2 (VH2) and human kappa light chain LC1 (VL1); also called humanized monoclonal antibody specific for HPTP-β
B8: HC2:LC1-AFL (bispecific antibody, human IgG4 S228P, kappa)
heavy: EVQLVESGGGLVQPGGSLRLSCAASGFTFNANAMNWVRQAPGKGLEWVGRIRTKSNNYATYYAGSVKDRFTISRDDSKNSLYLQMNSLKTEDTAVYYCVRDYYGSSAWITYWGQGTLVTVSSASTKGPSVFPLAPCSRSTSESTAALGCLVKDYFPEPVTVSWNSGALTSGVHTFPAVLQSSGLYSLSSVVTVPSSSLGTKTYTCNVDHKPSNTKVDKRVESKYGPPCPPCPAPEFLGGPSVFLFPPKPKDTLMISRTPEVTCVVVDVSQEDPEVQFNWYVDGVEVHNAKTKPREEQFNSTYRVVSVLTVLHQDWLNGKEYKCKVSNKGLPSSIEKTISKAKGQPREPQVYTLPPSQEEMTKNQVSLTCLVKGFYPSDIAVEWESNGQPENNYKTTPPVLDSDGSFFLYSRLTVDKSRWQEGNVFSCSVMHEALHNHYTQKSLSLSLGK
light: DVVMTQSPSFLSASVGDRVTITCKASQHVGTAVAWYQQRPGKAPKLLIYWASTRHTGVPSRFSGSGSGTEFTLTISSLQPEDFATYFCQQYSSYPFTFGGGTKLEIKRTVAAPSVFIFPPSDEQLKSGTASVVCLLNNFYPREAKVQWKVDNALQSGNSQESVTEQDSKDSTYSLSSTLTLSKADYEKHKVYACEVTHQGLSSPVTKSFNRGECGGGGSSDTGRPFVEMYSEIPEIIHMTEGRELVIPCRVTSPNITVTLKKFPLDTLIPDGKRIIWDSRKGFIISNATYKEIGLLTCEATVNGHLYKTNYLTHRQTNTIIDVVLSPSHGIELSVGEKLVLNCTARTELNVGIDFNWEYPSSKHQHKKLVNRDLKTQSGSEMKKFLSTLTIDGVTRSDQGLYTCAASSGLMTKKNSTFVRVHEK
B9: HC2-AFL:LC1-AFL (bispecific antibody, human IgG4 S228P, kappa)
heavy: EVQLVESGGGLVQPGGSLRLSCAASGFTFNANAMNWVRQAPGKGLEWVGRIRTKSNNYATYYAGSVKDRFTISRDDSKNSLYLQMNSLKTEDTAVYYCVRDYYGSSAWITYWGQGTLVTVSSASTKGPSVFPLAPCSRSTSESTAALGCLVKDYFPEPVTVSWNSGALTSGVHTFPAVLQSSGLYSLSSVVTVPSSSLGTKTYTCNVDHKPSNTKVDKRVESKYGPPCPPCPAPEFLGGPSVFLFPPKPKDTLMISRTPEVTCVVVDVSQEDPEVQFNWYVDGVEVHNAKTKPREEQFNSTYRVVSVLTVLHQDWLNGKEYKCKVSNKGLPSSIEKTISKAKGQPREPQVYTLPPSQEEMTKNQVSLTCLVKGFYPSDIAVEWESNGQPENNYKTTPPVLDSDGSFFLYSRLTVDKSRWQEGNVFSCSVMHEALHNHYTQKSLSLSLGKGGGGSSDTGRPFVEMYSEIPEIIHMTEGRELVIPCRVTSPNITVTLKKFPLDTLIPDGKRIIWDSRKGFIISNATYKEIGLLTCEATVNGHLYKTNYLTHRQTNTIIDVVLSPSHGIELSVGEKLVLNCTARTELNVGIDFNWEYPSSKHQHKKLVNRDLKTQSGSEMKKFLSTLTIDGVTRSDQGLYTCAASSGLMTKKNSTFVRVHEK
light: B8 light
B10: HC2:LC1-BRO (bispecific antibody, human IgG4 S228P, kappa)
heavy: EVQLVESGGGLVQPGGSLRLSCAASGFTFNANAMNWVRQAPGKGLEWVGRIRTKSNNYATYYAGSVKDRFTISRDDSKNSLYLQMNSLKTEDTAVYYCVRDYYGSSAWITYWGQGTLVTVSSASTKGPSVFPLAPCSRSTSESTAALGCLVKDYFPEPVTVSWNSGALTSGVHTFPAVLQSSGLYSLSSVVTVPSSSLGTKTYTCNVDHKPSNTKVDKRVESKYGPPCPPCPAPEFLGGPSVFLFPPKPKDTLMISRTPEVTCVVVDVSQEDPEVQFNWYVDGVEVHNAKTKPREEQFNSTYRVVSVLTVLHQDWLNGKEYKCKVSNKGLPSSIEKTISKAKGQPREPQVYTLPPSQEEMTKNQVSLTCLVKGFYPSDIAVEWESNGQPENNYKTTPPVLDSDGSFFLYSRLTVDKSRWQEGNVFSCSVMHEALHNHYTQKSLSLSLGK
light: DVVMTQSPSFLSASVGDRVTITCKASQHVGTAVAWYQQRPGKAPKLLIYWASTRHTGVPSRFSGSGSGTEFTLTISSLQPEDFATYFCQQYSSYPFTFGGGTKLEIKRTVAAPSVFIFPPSDEQLKSGTASVVCLLNNFYPREAKVQWKVDNALQSGNSQESVTEQDSKDSTYSLSSTLTLSKADYEKHKVYACEVTHQGLSSPVTKSFNRGECGGGGSEIVMTQSPSTLSASVGDRVIITCQASEIIHSWLAWYQQKPGKAPKLLIYLASTLASGVPSRFSGSGSGAEFTLTISSLQPDDFATYYCQNVYLASTNGANFGQGTKLTVLGGGGGSGGGGSGGGGSGGGGSEVQLVESGGGLVQPGGSLRLSCTASGFSLTDYYYMTWVRQAPGKGLEWVGFIDPDDDPYYATWAKGRFTISRDNSKNTLYLQMNSLRAEDTAVYYCAGGDHNSGWGLDIWGQGTLVTVSS
B11: HC2-BRO:LC1-BRO (bispecific antibody, human IgG4 S228P, kappa)
heavy: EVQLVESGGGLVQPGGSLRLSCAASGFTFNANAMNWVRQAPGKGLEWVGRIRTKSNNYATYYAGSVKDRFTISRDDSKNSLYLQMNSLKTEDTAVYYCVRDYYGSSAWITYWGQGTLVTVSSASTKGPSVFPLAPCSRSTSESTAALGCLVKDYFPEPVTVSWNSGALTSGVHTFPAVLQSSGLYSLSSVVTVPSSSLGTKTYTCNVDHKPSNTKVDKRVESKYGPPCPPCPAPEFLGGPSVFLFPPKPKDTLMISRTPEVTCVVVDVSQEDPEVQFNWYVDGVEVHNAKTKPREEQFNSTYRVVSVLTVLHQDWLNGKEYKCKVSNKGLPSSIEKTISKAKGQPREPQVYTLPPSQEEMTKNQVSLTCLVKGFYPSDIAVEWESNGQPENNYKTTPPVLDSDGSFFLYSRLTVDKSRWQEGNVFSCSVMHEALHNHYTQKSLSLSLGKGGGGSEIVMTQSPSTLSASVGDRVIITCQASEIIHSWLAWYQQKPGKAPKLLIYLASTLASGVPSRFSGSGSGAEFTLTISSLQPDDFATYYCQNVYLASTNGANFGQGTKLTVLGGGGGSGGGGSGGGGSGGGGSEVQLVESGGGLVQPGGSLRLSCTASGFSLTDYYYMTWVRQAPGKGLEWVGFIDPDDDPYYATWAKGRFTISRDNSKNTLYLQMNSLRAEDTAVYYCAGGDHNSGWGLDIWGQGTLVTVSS
light: B10 light

Experiments:
[1] = target: T1, VEGF (UniProt P15692-4 27-191, limits assumed); test: Biacore SPR, scouting at 10 nM analyte; antibody immobilised on CM5 chip, VEGF as analyte
T1 construct: also called vascular endothelial growth factor
T1 sequence (P15692 other isoform, or with tags, fused parts or gaps limits assumed): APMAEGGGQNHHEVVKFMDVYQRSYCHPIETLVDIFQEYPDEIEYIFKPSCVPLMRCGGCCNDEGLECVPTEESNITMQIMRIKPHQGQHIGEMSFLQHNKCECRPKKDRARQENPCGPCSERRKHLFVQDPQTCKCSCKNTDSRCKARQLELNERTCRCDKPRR
Description: (§1) The assay buffer contained 10 mM HEPES buffer (pH 7.4), 150 mM NaCl, 3 mM EDTA, and 0.05% P20 (polyoxyethylenesorbitan). […] The conjugation buffer contained 10 mM sodium acetate buffer (pH 5). A flow rate of 5 μL/minute was used for capturing ligand. A flow rate of 30 μL/minute was used for kinetic analysis.
(§2) For analysis of binding of the antibodies to VEGF, the antibodies were immobilized on the surface of the chip by direct immobilization using EDC/NHS coupling chemistry on flow cell 2 of the CM5 chip. Unoccupied sites were blocked with 1M ethanolamine. The analyte (VEGF) was flowed over the chip at a single analyte concentration at a time. The binding of analyte to the ligand was monitored in real time to obtain on (kₐ) and off (kd) rates. The equilibrium constant (KD) was calculated from the observed kₐ and kd.
(§3) Chi square analysis was carried out between the actual sensorgram and the sensorgram generated from the BIAnalysis software to confirm the accuracy of the analysis; values of 1-2 were considered accurate and below 1 highly accurate.

[2] = target: T1, VEGF; test: Biacore SPR, full kinetics at 0-10 nM analyte; antibody immobilised on CM5 chip, VEGF as analyte
Description: as §1, §2
(§4) Chi square analysis was carried out between the actual sensorgram and the sensorgram generated from the BNAnalysis software to confirm the accuracy of the analysis; values of 1-2 were considered accurate and below 1 highly accurate.

[3] = target: T2, poly-histidine tagged HPTP-β extracellular domain (ECD) 1/2 (human, UniProt P23467 23-730, limits assumed); test: Biacore SPR, scouting at 10 nM analyte; His-tagged HPTP-β 1/2 ECD captured by anti-His, antibody as analyte
T2 construct: domain: extracellular domain (ECD) 1/2; Captured on the Biacore chip through goat anti-His antibody; also called His-tagged ligand HPTP-β 1/2 ECD; not shown: poly-histidine tag
T2 sequence (looked up): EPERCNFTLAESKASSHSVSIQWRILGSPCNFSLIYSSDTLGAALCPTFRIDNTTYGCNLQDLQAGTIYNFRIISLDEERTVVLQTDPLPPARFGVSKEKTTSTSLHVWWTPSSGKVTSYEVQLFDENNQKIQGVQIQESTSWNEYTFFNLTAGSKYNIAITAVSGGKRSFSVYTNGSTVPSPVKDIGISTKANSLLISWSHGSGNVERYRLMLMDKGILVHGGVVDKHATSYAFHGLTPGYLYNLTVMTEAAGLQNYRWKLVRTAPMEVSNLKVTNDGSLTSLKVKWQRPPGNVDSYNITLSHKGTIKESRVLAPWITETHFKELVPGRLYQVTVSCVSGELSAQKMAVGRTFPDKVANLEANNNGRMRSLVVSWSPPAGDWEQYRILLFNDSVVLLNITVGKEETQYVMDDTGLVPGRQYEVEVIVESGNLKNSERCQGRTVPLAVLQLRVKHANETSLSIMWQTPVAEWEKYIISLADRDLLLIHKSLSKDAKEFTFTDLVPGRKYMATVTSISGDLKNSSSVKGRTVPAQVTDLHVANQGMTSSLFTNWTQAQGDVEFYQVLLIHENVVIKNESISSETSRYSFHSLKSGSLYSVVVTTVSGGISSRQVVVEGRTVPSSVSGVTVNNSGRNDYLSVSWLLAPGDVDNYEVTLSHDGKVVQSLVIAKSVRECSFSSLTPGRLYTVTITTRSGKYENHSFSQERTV
Description: as §1
(§5) For analysis of binding of antibodies to HPTP-β, poly-histidine tagged HPTP-β extracellular domain (ECD) 1/2 was immobilized on a chip surface via anti-His antibodies. Goat anti-His antibody was first immobilized on the surface of the chip by direct immobilization using EDC/NHS (N-ethyl-N′-(3-dimethyl aminopropyl carbodiimide)/N-hydroxy succinamide) coupling chemistry on flow cell 2 of the CM5 (Carboxymethylated dextran coated) chip. Unoccupied sites were blocked with 1M ethanolamine. The His-tagged ligand HPTP-β 1/2 ECD was captured at a response unit (RU) of 50. The analyte (antibody) was flowed over the chip at a single analyte concentration at a time. The binding of analyte to the ligand was monitored in real time to obtain on (kₐ) and off (kd) rates. The equilibrium constant (KD) was calculated from the observed kₐ and kd.
as §3

[4] = target: T2, poly-histidine tagged HPTP-β …; test: Biacore SPR, full kinetics at 0-10 nM analyte; His-tagged HPTP-β 1/2 ECD captured by anti-His, antibody as analyte
Description: as §1, §5, §4

[5] = target: T2, poly-histidine tagged HPTP-β …; test: Biacore SPR, scouting at 10 nM analyte; His-tagged HPTP-β 1/2 ECD captured by anti-His, antibody as analyte; scouting experiment at a single ligand concentration (Table 46), not full kinetics
Excerpt: as §5, §3

[6] = target: T1, VEGF; test: Biacore SPR, scouting; antibody immobilised on CM5 chip, VEGF as analyte
Description: as §2, §3

Row | Binder | Kd [1] | Kd [2] | Kd [3] | Kd [4] | Kd [5] | binding result [6]
1 | B1 | 350 pM | 46.3 pM | 320 pM | 219 pM | – | –
2 | B2 | 0.112 pM | 0.218 pM | 325 pM | 154 pM | – | –
3 | B3 | 0.11 pM | 0.04 pM | 122 pM | 1.03 pM | – | –
4 | B4 | – | – | – | – | 0.586 pM | –
5 | B5 | 519 pM | – | 61 pM | – | – | –
6 | B6 | 680 pM | – | 205 pM | – | – | –
7 | B7 | – | – | 73.2 pM | 121 pM | – | no binding (tested: 10 nM of analyte)
8 | B8 | 825 pM | – | 467 pM | – | – | –
9 | B9 | 557 pM | – | 69.4 pM | – | – | –
10 | B10 | 0.0351 pM | – | 309 pM | – | – | –
11 | B11 | 1.79 pM | – | 3.5 pM | – | – | –
